Experimental data from publication PMC3777995, “The Inhibitory Helix Controls the Intramolecular Conformational Switching of the C-Terminus of STIM1” (PLoS ONE, 2013).
Several values for one entry are separate records, joined by “and”; a condition that tells them apart may be missing. Equal entries are not always repeated.

B1: wild-type CC1-IH (human STIM1 amino acids 237-340) (domain or fragment, UniProt Q13586 237-340, looked up)
chain: SKEHMKKMMKDLEGLHRAEQSLHDLQERLHKAQEEHRTVEVEKVHLEKKLRDEINLAKQEAQRLKELREGTENERSRQKYAEEELEQVREALRKAEKELESHSS
notes: Predominantly a dimer and partially a tetramer by AUC; His tag removed with PreScission protease; source: E. coli BL21(DE3) Codon-Plus, purified (Ni-NTA, Q-Sepharose, Superdex-200)
B2: IH-only fragment of STIM1 (peptide, UniProt Q13586 310-340, looked up)
chain: ERSRQKYAEEELEQVREALRKAEKELESHSS
notes: limits 310-340 are printed for the MBP-tagged IH from which this fragment was cut; Theoretical mass 3.7 kDa; also called IH-only protein; source: E. coli, obtained by PreScission digestion of purified MBP-IH, purified (Superdex 200)
B3: MBP-IH fusion protein (MBP-tagged IH, STIM1 residues 310-340) (domain or fragment, human, UniProt Q13586 310-340, looked up)
chain: B2 chain
notes: made by loop-out of the CC1 fragment from MBP-CC1-IH; Theoretical mass 49 kDa; a PreScission-cleavable segment stands between MBP and IH; also called IH-MBP fusion protein; source: E. coli, purified (MBPTrap, Q-Sepharose, Superdex-200)

Columns and labels:
[1] = molecular target: the molecule itself; test: AUC; sedimentation velocity, 42,000 rpm, 4°C, interference detection; approximately 6 mg/ml CC1-IH, 1.57 mg/ml CC1, 1.2 mg/ml MBP-IH; 20 mM Tris-HCl pH 8.0, 200 mM NaCl, 1 mM EDTA; self-associating multimerization model
[2] = molecular target: the molecule itself; test: SEC; HiLoad 26/60 Superdex 200 and Superdex 200 columns calibrated with protein standards; 20 mM Tris-HCl pH 8.0, 200 mM NaCl, 1 mM EDTA

Row | Protein | stoichiometry N [1] | stoichiometry N [2]
1 | B1 | 2 and 4 | 
2 | B2 |  | 2
3 | B3 |  | 2
